Consider five molecules from patent US20250313626A1 (HARBOUR BIOMED SHANGHAI, published 2025).

Sequences and labels used below:
T1: human CD200R1a protein (soluble recombinant) (human, UniProt Q8TD46 29-265)
T1 construct: Soluble protein used in BLI; also called human CD200R1 isoform a; not shown: His tag implied by capture on anti-Penta-HIS biosensors
T1 sequence: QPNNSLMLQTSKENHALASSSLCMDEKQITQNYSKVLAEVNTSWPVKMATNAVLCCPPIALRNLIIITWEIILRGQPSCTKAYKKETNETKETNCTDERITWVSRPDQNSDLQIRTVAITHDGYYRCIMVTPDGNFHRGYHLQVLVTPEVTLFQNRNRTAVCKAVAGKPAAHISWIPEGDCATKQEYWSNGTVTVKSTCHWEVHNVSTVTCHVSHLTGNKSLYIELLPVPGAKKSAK

T2: CD200R1a on PathHunter Jurkat CD200R1a signaling cells (Eurofins DiscoverX, 93-1136C19) (human, UniProt Q8TD46 25-348)
T2 sequence: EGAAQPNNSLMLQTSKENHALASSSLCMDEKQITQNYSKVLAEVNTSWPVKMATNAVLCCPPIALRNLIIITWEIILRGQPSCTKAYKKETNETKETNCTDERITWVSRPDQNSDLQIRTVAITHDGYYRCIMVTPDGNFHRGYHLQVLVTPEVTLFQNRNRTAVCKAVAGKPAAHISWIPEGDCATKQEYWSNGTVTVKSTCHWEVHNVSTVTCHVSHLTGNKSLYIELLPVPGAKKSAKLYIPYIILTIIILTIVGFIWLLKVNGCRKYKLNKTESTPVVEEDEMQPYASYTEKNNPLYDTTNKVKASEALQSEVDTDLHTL

T3: human CD200R1 isoform a on CHOK1 cells (CHOK1/hCD200R1a) (human, UniProt Q8TD46 25-348)
T3 construct: also called CHOK1/CD200R1a
T3 sequence: T2 sequence

T4: Cynomolgus macaques CD200R1 isoform a on CHOK1 cells (CHOK1/cynoCD200R1a) (Cynomolgus macaques)
T4 chain: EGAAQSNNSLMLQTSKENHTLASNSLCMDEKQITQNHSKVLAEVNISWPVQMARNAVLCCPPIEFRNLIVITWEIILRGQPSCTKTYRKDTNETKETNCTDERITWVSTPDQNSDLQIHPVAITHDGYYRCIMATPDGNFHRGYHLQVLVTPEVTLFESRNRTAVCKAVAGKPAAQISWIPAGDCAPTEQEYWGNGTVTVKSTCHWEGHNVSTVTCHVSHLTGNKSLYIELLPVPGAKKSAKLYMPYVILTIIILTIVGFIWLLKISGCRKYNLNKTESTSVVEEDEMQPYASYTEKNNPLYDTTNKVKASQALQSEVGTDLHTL

B1: Cyno CD200R1a-His (receptor)
chain: EGAAQSNNSLMLQTSKENHTLASNSLCMDEKQITQNHSKVLAEVNISWPVQMARNAVLCCPPIEFRNLIVITWEIILRGQPSCTKTYRKDTNETKETNCTDERITWVSTPDQNSDLQIHPVAITHDGYYRCIMATPDGNFHRGYHLQVLVTPEVTLFESRNRTAVCKAVAGKPAAQISWIPAGDCAPTEQEYWGNGTVTVKSTCHWEGHNVSTVTCHVSHLTGNKSLYIELLPVPGAKKSAK
notes: Soluble protein used in BLI; also called Cynomolgus macaques CD200R1a recombinant protein; not shown: His tag
B2: Fc-tagged human CD200 protein (Fc fusion)
chain: QVQVVTQDEREQLYTPASLKCSLQNAQEALIVTWQKKKAVSPENMVTFSENHGVVIQPAYKDKINITQLGLQNSTITFWNITLEDEGCYMCLFNTFGFGKISGTACLTVYVQPIVSLHYKFSEDHLNITCSATARPAPMVFWKVPRSGIENSTVTLSHPNGTTSVTSILHIKDPKNQVGKEVICQVLHLGTVTDFKQTVNKG
notes: also called hCD200; not shown: Fc tag
B3: PR006207 (antibody, human IgG1, kappa, L234A L235A, V domains shown)
VH: QVQLVQSGAEVKKPGASVKVSCKASGFSFSSGYYMAWVRQAPGQGLEWMGLIGVGSGSLWYAQKFQGRVTMTRDTSTSTVYMELSSLRSEDTAVYYCARHFALSDPFNLWGQGTLVTVSS
VL: EIVLTQSPDFQSVTPKEKVTITCQASESIDSYLLWYQQKPDQSPKLLIKQASTLASGVPSRFSGSGSGTDFTLTINSLEAEDAATYYCQNYYDISSNDFGGGTKVEIKR
notes: also called recombinant antibody of I-4P
B4: PR006895 (antibody, human IgG1, kappa)
heavy: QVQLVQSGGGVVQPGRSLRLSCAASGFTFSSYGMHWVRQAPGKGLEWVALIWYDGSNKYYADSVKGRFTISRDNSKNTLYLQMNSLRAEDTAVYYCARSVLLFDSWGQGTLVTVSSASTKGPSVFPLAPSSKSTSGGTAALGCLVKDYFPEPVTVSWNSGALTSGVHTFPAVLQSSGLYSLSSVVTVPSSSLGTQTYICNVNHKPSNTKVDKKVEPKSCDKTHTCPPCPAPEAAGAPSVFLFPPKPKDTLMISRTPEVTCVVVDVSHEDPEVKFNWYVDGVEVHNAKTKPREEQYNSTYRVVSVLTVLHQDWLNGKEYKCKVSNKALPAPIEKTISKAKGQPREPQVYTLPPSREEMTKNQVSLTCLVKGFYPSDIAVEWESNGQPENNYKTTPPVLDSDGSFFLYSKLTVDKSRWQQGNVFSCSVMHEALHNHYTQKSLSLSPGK
light: DIQMTQSPPSLSASVGDRVTITCRASQSISSYLNWFQQKAGKAPKLLISATSNLQSGVPSRFSGSGSGTDFTLTISSLQPEDLATYYCQQSYSSPYTFGQGTKVEIKRTVAAPSVFIFPPSDEQLKSGTASVVCLLNNFYPREAKVQWKVDNALQSGNSQESVTEQDSKDSTYSLSSTLTLSKADYEKHKVYACEVTHQGLSSPVTKSFNRGEC
notes: Fc variant of PR006480: human IgG1 with L234A, L235A, G237A (EU)
B5: PR007442 (antibody, human IgG1, kappa)
heavy: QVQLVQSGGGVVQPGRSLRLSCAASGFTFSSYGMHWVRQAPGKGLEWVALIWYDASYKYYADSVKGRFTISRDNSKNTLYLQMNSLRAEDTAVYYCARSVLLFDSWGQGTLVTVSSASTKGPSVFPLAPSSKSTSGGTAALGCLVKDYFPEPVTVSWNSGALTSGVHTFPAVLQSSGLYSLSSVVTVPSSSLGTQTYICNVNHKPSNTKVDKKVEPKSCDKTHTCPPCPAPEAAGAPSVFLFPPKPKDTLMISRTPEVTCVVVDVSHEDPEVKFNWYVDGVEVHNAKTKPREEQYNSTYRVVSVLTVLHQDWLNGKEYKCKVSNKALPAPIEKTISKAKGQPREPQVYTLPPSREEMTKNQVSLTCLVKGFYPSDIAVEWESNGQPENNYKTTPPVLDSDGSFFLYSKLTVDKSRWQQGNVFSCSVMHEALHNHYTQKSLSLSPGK
light: B4 light with S91T, Y92L
notes: PTM variant of PR006895 (human IgG1)

Experiment [1] deals with B2. Description: BLI (Octet), Fc-tagged hCD200 captured on anti-human Fc sensor, soluble CD200R1a as analyte, 1:1 fit.
Experiment [2] deals with T1, human CD200R1a protein (soluble …). The experiment is described as above.
Experiment [3] shares this target. As to the kind of experiment: BLI in-tandem competition on His-captured human CD200R1a; row = 1st Ab (400 nM); competitor (2nd Ab) PR006207. The method, then:
(§1) To determine if the anti-CD200R1 antibodies bind to human CD200R1a on different or approximate binding epitopes, epitope competition experiments for the anti-CD200R1 antibodies were performed by the ForteBlio Octet® RED96e platform. […] The in-tandem competition assay format was applied, and it contained two association steps. Firstly, the antigen-loaded biosensors bound to each antibody (i.e., First antibody, 1st Ab) at a saturating concentration of 400 nM for 300 seconds to reach equilibrium and then secondly bound to the competing antibodies (i.e., Second antibody, 2nd Ab) of 400 nM for 300 seconds. The second binding signals are recorded as the 100% signal of each antibody when the first antibodies are replaced by kinetic buffer. All the binding data were analyzed using ForteBlio Data Analysis 11.0 software. The inhibition rate was calculated by the following formula: […]

The target is the same in experiment [4]. Description: BLI in-tandem competition on His-captured human CD200R1a; row = 1st Ab (400 nM); competitor (2nd Ab) PR007221. The method, then: as §1
Experiment [5] has the same target. As to the kind of experiment: BLI in-tandem competition on His-captured human CD200R1a; row = 1st Ab (400 nM); competitor (2nd Ab) PR007223. The method, then:
as §1

Experiment [6] has the same target. Description: BLI in-tandem competition on His-captured human CD200R1a; row = 1st Ab (400 nM); competitor (2nd Ab) PR007973. The method, then: as §1
Experiment [7] addresses T2, CD200R1a on PathHunter Jurkat CD200R1a …. As to the kind of experiment: cell-based or functional assay.
Experiment [8] has the same target. As to the kind of experiment: cell-based or functional assay. The source holds these as a separate data set.
Experiment [9] addresses T3, human CD200R1 isoform a on CHOK1 cells …. As to the kind of experiment: flow cytometry, CHOK1/hCD200R1a cells (FITC-Mean); table beside the curves. The method, then:
This example is intended to investigate the in vitro binding activity of human anti-CD200R1 monoclonal antibodies to human/Cynomolgus macaques CD200R1a expressed on the surface of cells. The anti-CD200R1 antibodies were produced as described in Example 3.4 and the binding experiments at the cell level were performed using CHOK1/hCD200R1a and CHOK1-cynoCD200R1a.
Briefly, CHOK1/hCD200R1a cells and CHOK1-cynoCD200R1a cells were digested, and collected, and then were resuspended in PBS containing 2% BSA, respectively. The cell density was adjusted to 1×10⁶ cells/mL. The cells were seeded in a 96-well V-bottom plate (Corning, #3894) at 100 μL/well, followed by the addition of test antibodies and reference antibodies in a series diluted concentration, each at 100 μL/well. The cells were incubated away from light at 4° C. for 1 h. Thereafter, the cells in each well were rinsed twice with 100 μL of pre-cooled PBS containing 2% BSA, and centrifuged at 500 g at 4° C. for 5 min, and then the supernatant was discarded. 100 μL of fluorescent secondary antibody (Alexa Fluor 488-conjugated AffiniPure Goat Anti-Human IgG, Fcγ Fragment Specific, Jackson, #109-545-098, diluted in a 1:1000 ratio) was added in each well, and the plate was incubated away from light at 4° C. for 1 h. The cells in each well were rinsed twice with 100 μL of pre-cooled PBS containing 2% BSA, and centrifuged at 500 g at 4° C. for 5 min, and then the supernatant was discarded. Finally, the cells in each well were resuspended in 200 μL of pre-cooled PBS containing 2% BSA, and the fluorescence signal values were read using a BD CantoII flow cytometer.

In experiment [10] the target is T4, Cynomolgus macaques CD200R1 isoform a …. Description: flow cytometry, CHOK1/cynoCD200R1a cells (APC-A Mean); table beside the curves.
Experiment [11] deals with T3, human CD200R1 isoform a on CHOK1 cells …. As to the kind of experiment: flow cytometry blocking assay: biotin-labelled human CD200 binding to CHOK1/hCD200R1a cells; y axis Inhibition %. The method, then: (§2) In brief, CHOK1/hCD200R1a cells were digested and resuspended in 2% BSA in PBS. […] The cells were placed at 4° C. and incubated for 1 hour in the dark. […] 100 μL/well of pre-cooled PBS containing 2% BSA was added to rinse the cells twice, centrifugation was performed at 500 g, 4° C. for 5 minutes, and the supernatant was discarded. Fluorescent secondary antibody (PE Streptavidin, BD, Cat #: 554061, 1:200) was added at 100 μL/well, and incubation was performed at 4° C. for 30 minutes in the dark. The cells were washed twice with 200 μL/well of pre-cooled PBS, and were centrifuged at 500 g, 4° C. for 5 minutes, and the supernatant was discarded. Finally, 200 μL/well of pre-cooled PBS was used to resuspend the cells, and the fluorescence signal values were read using ACEA Novocyte 3000 flow cytometer. IC50 values were calculated.

Experiment [12] shares this target. As to the kind of experiment: flow cytometry, CHOK1/hCD200R1a cells (FITC-Mean); table beside the curves, head without unit, x axis Log [Ab] (nM).
Experiment [13] shares this target. As to the kind of experiment: flow cytometry blocking assay: antibody titrated against biotin-labelled human CD200 binding to CHOK1/hCD200R1a cells; head prints EC50 without unit, x axis Log [Ab] (nM), y axis Inhibition %. The method, then:
as §2

Changes are numbered by the printed parent chain. In names and notes the source's numbering stands. Read-outs that look alike come from different tables or passages of the source.

As for B1, in experiment [1], the Kd was 197 nM, the koff was 0.0316 s⁻¹ and the kon came to 161000 M⁻¹ s⁻¹.

On to B2, for which, in experiment [2], the Kd was found to be 77.1 nM, the koff worked out at 0.0177 s⁻¹ and the kon was 230000 M⁻¹ s⁻¹.

On to B3, for which the “Inhibition ratio (%)” value in experiment [3] was 97.6%; in experiment [4], -36.2%; in experiment [5] it was -38.6%; in [6], -39.9%.

For the molecule B4, the “IC50 of the inhibition of CD200-induced PathHunter Jurkat CD200R1a luminescence (CHOK1/hCD200 cells as CD200 source)” value in experiment [7] was 0.988 nM; in experiment [8] it was 0.886 nM. Also, the “MFI(Max)” value in [9] is 8410. In addition, the EC50 came to 20.5 nM in [10], 0.172 nM in experiment [12] and 0.339 nM in [13]. Also, in experiment [10], the “MFI (MAX)” value was found to be 33400. Besides, in [11], the “Blocking(Max)” value amounted to 49.8%.

Regarding B5, the “IC50 of the inhibition of CD200-induced PathHunter Jurkat CD200R1a luminescence (CHOK1/hCD200 cells as CD200 source)” value in experiment [7] was determined as 0.844 nM. In experiment [9], the “MFI(Max)” value came to 8850. The EC50 in experiment [10] was determined as 6.86 nM; in experiment [12] it was 0.108 nM; in [13], 0.19 nM. For the same molecule, the “MFI (MAX)” value in [10] came out at 50100. In [11], the “Blocking(Max)” value worked out at 80%.
